Three substances from paper PMC8888459 can be followed below.

The target of experiment [1] is Yah1-GST fusion protein (S. cerevisiae) (UniProt Q12184). As to the kind of experiment: pull-down; GST-tagged Yah1 bait (2.5 μM) incubated with NIA (5 μM or increasing) and/or Isu1 (7.5 μM) in buffer PD (40 mM Hepes–KOH pH 7.5, 5% glycerol, 100 mM KCl, 1 mM DTT, 10 mM MgCl2) 15 min at 25 °C; glutathione agarose 1 h at 4 °C; SDS-PAGE, InstantBlue, densitometry corrected for binding to GST; aerobic (Yah1 cluster oxidised).

The target in experiment [2] is NIA–Isu1 complex with C. thermophilum Isu1 (S. cerevisiae | E. coli (endogenous in the expression host) | C. thermophilum) (UniProt P25374). Description: pull-down; competition: Yah1^GST (2.5 μM) with NIA (5 μM), with or without Isu1Sc or Isu1Ct (7.5 μM), then Yfh1 WT or DE/KK added (12.5 μM or increasing concentrations); glutathione resin; densitometry, amount without Yfh1 set as 100%; buffer PD.

Chain of Yah1-GST fusion protein (S. cerevisiae) (Q12184 17-172): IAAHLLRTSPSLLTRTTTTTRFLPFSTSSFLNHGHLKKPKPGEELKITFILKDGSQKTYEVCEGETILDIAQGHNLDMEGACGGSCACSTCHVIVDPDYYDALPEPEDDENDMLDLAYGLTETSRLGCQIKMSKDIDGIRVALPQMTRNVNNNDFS

In experiment [1], “NIA–Isu1 complex containing Nfs1(R313A, R316A, R318A), with Isu1Ct (from UniProt P25374 37-497; Q6Q560 1-94; P0A6A8 1-78)” returned a binding as percent of the WT control of 30%. “NIA–Isu1 complex containing Nfs1(R313E, R316E, R318E), with Isu1Ct (from UniProt P25374 37-497; Q6Q560 1-94; P0A6A8 1-78)” came in with a binding as percent of the WT control in experiment [1] of 20%. Take “Yfh1 (frataxin) with a C-terminal polyhistidine tag (from UniProt Q07540 52-174) (natural protein)”: in experiment [2], the percent of the control left pulled down with Yah1^GST at 5 μM Yfh1 was found to be 30%; the percent reduction of Nfs1, Isd11 and Isu1 pulled down with Yah1^GST at a fivefold excess of Yfh1 (12.5 μM) was found to be 85%.
